Results taken from patent US20180371090A1.
Changes are numbered by the printed parent chain. Values belong to the binder of their own block, whether it stands above or below them.

Legend:
[1] = molecular target: His-tagged cynomolgus FcγRIIA (cynomolgus); test: SPR steady-state, His-captured receptor, 25 C
[2] = molecular target: His-tagged human FcγRIIA (R131) (human) (UniProt P12318); test: SPR steady-state, His-captured receptor, 25 C
[3] = molecular target: His-tagged human FcγRIIA (H131) (human) (UniProt P12318); test: SPR steady-state, His-captured receptor, 25 C
[4] = molecular target: His-tagged cynomolgus FcγRIIB (cynomolgus); test: SPR steady-state, His-captured receptor, 25 C
[5] = molecular target: His-tagged human FcγRIIB (human) (UniProt P31994); test: SPR steady-state, His-captured receptor, 25 C
[6] = molecular target: His-tagged cynomolgus FcγRIIIA (cynomolgus) (UniProt Q8SPW2); test: SPR steady-state, His-captured receptor, 25 C
[7] = molecular target: human CD3 on Jurkat cells (human) (UniProt P07766); test: flow cytometry on Jurkat cells, FITC anti-human IgG secondary
[8] = molecular target: FcγRI and FcγRIIA on U937 cells; test: flow cytometry on U937 cells (FcγRI and FcγRIIA), FITC goat anti-human Fab secondary, MFI

Chain of His-tagged cynomolgus FcγRIIIA (cynomolgus) (Q8SPW2 17-208 limits assumed): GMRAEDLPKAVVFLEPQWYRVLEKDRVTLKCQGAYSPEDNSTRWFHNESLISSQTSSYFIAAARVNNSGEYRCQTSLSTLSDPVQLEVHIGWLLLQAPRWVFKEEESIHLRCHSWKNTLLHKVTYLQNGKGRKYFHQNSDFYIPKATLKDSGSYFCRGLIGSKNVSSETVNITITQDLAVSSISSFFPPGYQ
Chain of His-tagged human FcγRIIB (human) (P31994 46-217 limits assumed): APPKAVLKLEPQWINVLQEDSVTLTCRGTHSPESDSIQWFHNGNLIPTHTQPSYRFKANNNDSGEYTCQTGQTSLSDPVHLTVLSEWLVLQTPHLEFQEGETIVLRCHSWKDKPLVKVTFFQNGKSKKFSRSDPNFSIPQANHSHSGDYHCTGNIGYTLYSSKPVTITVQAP
Chain of His-tagged human FcγRIIA (R131) (human) (P12318 36-218 H167R limits assumed): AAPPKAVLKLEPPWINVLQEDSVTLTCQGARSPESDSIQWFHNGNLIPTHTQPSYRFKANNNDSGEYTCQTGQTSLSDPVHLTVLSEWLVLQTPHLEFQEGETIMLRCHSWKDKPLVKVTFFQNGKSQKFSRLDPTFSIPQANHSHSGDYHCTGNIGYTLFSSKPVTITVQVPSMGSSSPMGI
Chain of His-tagged human FcγRIIA (H131) (human) (P12318 36-218 limits assumed): as the sequence (P12318 36-218 H167R limits assumed) above, with R132H counted along it

Kd [1]: 23.1 µM
Kd [2]: 19.3 µM
Kd [3]: 12 µM
Kd [4]: 13.9 µM
Kd [5]: 123 µM
Kd [6]: 66.3 µM
B1: Antibody 4, anti-CD3 x anti-CD20 bispecific antibody with chimeric IgG4 constant regions (bispecific antibody, part only; not given: variable domains of both arms, not shown: another chain or arm of the molecule)
constant 1: ASTKGPSVFPLAPCSRSTSESTAALGCLVKDYFPEPVTVSWNSGALTSGVHTFPAVLQSSGLYSLSSVVTVPSSSLGTKTYTCNVDHKPSNTKVDKRVESKYGPPCPPCPAPPVAGPSVFLFPPKPKDTLMISRTPEVTCVVVDVSQEDPEVQFNWYVDGVEVHNAKTKPREEQFNSTYRVVSVLTVLHQDWLNGKEYKCKVSNKGLPSSIEKTISKAKGQPREPQVYTLPPSQEEMTKNQVSLTCLVKGFYPSDIAVEWESNGQPENNYKTTPPVLDSDGSFFLYSRLTVDKSRWQEGNVFSCSVMHEALHNHYTQKSLSLSLGK
constant 2: B1 constant 1 with H314R, Y315F

Geom. Mean:FITC-A [7]: 1390
EC50 [8]: 0.0335 µM
B2: Antibody 1, sIgG4-anti-CD3_L2K (antibody, part only; not given: L2K light chain, part only)
heavy: DVQLVQSGAEVKKPGASVKVSCKASGYTFTRYTMHWVRQAPGQGLEWIGYINPSRGYTNYADSVKGRFTITTDKSTSTAYMELSSLRSEDTATYYCARYYDDHYCLDYWGQGTTVTVSSASTKGPSVFPLAPCSRSTSESTAALGCLVKDYFPEPVTVSWNSGALTSGVHTFPAVLQSSGLYSLSSVVTVPSSSLGTKTYTCNVDHKPSNTKVDKRVESKYGPPCPPCPAPPVAGPSVFLFPPKPKDTLMISRTPEVTCVVVDVSQEDPEVQFNWYVDGVEVHNAKTKPREEQFNSTYRVVSVLTVLHQDWLNGKEYKCKVSNKGLPSSIEKTISKAKGQPREPQVYTLPPSQEEMTKNQVSLTCLVKGFYPSDIAVEWESNGQPENNYKTTPPVLDSDGSFFLYSRLTVDKSRWQEGNVFSCSVMHEALHNHYTQKSLSLSLGK
